Assay results: publication PMC12102759 (2025)

B1: AMOTL2 peptide 66-81 (Angiomotin-like protein 2), 16-mer library wild type / TNKS ANK (TNKS 12 ANK repeats, residues 174-649) (parent complex)
chain 1: LQQATRQEPQGQEHQG
chain 2: TGVPAVSGALRELLEACRNGDVSRVKRLVDAANVNAKDMAGRKSSPLHFAAGFGRKDVVEHLLQMGANVHARDDGGLIPLHNACSFGHAEVVSLLLCQGADPNARDNWNYTPLHEAAIKGKIDVCIVLLQHGADPNIRNTDGKSALDLADPSAKAVLTGEYKKDELLEAARSGNEEKLMALLTPLNVNCHASDGRKSTPLHLAAGYNRVRIVQLLLQHGADVHAKDKGGLVPLHNACSYGHYEVTELLLKHGACVNAMDLWQFTPLHEAASKNRVEVCSLLLSHGADPTLVNCHGKSAVDMAPTPELRERLTYEFKGHSLLQAAREADLAKVKKTLALEIINFKQPQSHETALHCAVASLHPKRKQVTELLLRKGANVNEKNKDFMTPLHVAAERAHNDVMEVLHKHGAKMNALDTLGQTALHRAALAGHLQTCRLLLSYGSDPSIISLQGFTAAQMGNEAVQQILSESTPIRTSD

Variants of: B1
Assay: proteomic peptide phage display deep mutational scan (ProP-PD DMS): M13 P8 16-mer library selected against immobilised GST-tagged bait for four days (rounds), NGS of the eluted pools per day and pseudo-replica; bait immobilised on MaxiSorp plates (10 µg), library pre-cleared on GST, 2 h binding at 4 °C, five washes; one round per day, days 1-4; value from days 2 and 3

Compared with chain 1 L1S, chain 1 L1H is higher in screen value: 0.000161 average fractional NGS count over selection days 2 and 3 (reads of this peptide / all reads for the bait, averaged over … for the first, 0.00276 average fractional NGS count over selection days 2 and 3 (reads of this peptide / all reads for the bait, averaged over … for the second.

First: chain 1 L1N
Second: chain 1 L1V
The screen value of the first is lower: 0.000133 average fractional NGS count over selection days 2 and 3 (reads of this peptide / all reads for the bait, averaged over … for the first, 0.00393 average fractional NGS count over selection days 2 and 3 (reads of this peptide / all reads for the bait, averaged over … for the second.

Going from chain 1 L1D to chain 1 L1W, the screen value falls from 0.00194 average fractional NGS count over selection days 2 and 3 (reads of this peptide / all reads for the bait, averaged over … to 0.000562 average fractional NGS count over selection days 2 and 3 (reads of this peptide / all reads for the bait, averaged over ….

Going from chain 1 L1P to chain 1 L1G, the screen value falls from 0.000936 average fractional NGS count over selection days 2 and 3 (reads of this peptide / all reads for the bait, averaged over … to 0.000254 average fractional NGS count over selection days 2 and 3 (reads of this peptide / all reads for the bait, averaged over ….

Going from chain 1 L1M to chain 1 L1A, the screen value rises from 0.000626 average fractional NGS count over selection days 2 and 3 (reads of this peptide / all reads for the bait, averaged over … to 0.00444 average fractional NGS count over selection days 2 and 3 (reads of this peptide / all reads for the bait, averaged over ….

Compared with chain 1 L1I, chain 1 T5I is lower in screen value: 0.000531 average fractional NGS count over selection days 2 and 3 (reads of this peptide / all reads for the bait, averaged over … for the first, 0.000401 average fractional NGS count over selection days 2 and 3 (reads of this peptide / all reads for the bait, averaged over … for the second.

Compared with chain 1 T5Q, chain 1 T5N is lower in screen value: 0.00116 average fractional NGS count over selection days 2 and 3 (reads of this peptide / all reads for the bait, averaged over … for the first, 0.000716 average fractional NGS count over selection days 2 and 3 (reads of this peptide / all reads for the bait, averaged over … for the second.

Compared with chain 1 T5M, chain 1 E13Q is higher in screen value: 0.000134 average fractional NGS count over selection days 2 and 3 (reads of this peptide / all reads for the bait, averaged over … for the first, 0.000235 average fractional NGS count over selection days 2 and 3 (reads of this peptide / all reads for the bait, averaged over … for the second.

Compared with chain 1 E13I, chain 1 E13H is higher in screen value: 0.000226 average fractional NGS count over selection days 2 and 3 (reads of this peptide / all reads for the bait, averaged over … for the first, 0.000694 average fractional NGS count over selection days 2 and 3 (reads of this peptide / all reads for the bait, averaged over … for the second.

First: chain 1 E13M
Second: chain 1 E13V
The screen value of the first is lower: 0.000514 average fractional NGS count over selection days 2 and 3 (reads of this peptide / all reads for the bait, averaged over … for the first, 0.00131 average fractional NGS count over selection days 2 and 3 (reads of this peptide / all reads for the bait, averaged over … for the second.

Going from chain 1 E13N to chain 1 E13S, the screen value falls from 0.000173 average fractional NGS count over selection days 2 and 3 (reads of this peptide / all reads for the bait, averaged over … to 0.000101 average fractional NGS count over selection days 2 and 3 (reads of this peptide / all reads for the bait, averaged over ….

Going from chain 1 Q3N to chain 1 Q3S, the screen value rises from 0.000319 average fractional NGS count over selection days 2 and 3 (reads of this peptide / all reads for the bait, averaged over … to 0.000813 average fractional NGS count over selection days 2 and 3 (reads of this peptide / all reads for the bait, averaged over ….

Compared with chain 1 Q3F, chain 1 Q3D is lower in screen value: 0.000606 average fractional NGS count over selection days 2 and 3 (reads of this peptide / all reads for the bait, averaged over … for the first, 0.000274 average fractional NGS count over selection days 2 and 3 (reads of this peptide / all reads for the bait, averaged over … for the second.

Compared with chain 1 Q3Y, chain 1 Q3G is lower in screen value: 0.000305 average fractional NGS count over selection days 2 and 3 (reads of this peptide / all reads for the bait, averaged over … for the first, 0.000192 average fractional NGS count over selection days 2 and 3 (reads of this peptide / all reads for the bait, averaged over … for the second.

Compared with chain 1 Q3V, chain 1 Q3W is higher in screen value: 0.000386 average fractional NGS count over selection days 2 and 3 (reads of this peptide / all reads for the bait, averaged over … for the first, 0.000779 average fractional NGS count over selection days 2 and 3 (reads of this peptide / all reads for the bait, averaged over … for the second.

First: chain 1 Q3H
Second: chain 1 H14F
The screen value of the first is higher: 0.00741 average fractional NGS count over selection days 2 and 3 (reads of this peptide / all reads for the bait, averaged over … for the first, 0.00233 average fractional NGS count over selection days 2 and 3 (reads of this peptide / all reads for the bait, averaged over … for the second.

First: chain 1 H14L
Second: chain 1 H14W
The screen value of the first is lower: 0.000412 average fractional NGS count over selection days 2 and 3 (reads of this peptide / all reads for the bait, averaged over … for the first, 0.00121 average fractional NGS count over selection days 2 and 3 (reads of this peptide / all reads for the bait, averaged over … for the second.

Compared with chain 1 H14Q, chain 1 H14R is higher in screen value: 0.000459 average fractional NGS count over selection days 2 and 3 (reads of this peptide / all reads for the bait, averaged over … for the first, 0.00174 average fractional NGS count over selection days 2 and 3 (reads of this peptide / all reads for the bait, averaged over … for the second.

Compared with chain 1 H14M, chain 1 H14E is lower in screen value: 0.000405 average fractional NGS count over selection days 2 and 3 (reads of this peptide / all reads for the bait, averaged over … for the first, 0.000155 average fractional NGS count over selection days 2 and 3 (reads of this peptide / all reads for the bait, averaged over … for the second.

Compared with chain 1 H14N, chain 1 H14S is lower in screen value: 0.000168 average fractional NGS count over selection days 2 and 3 (reads of this peptide / all reads for the bait, averaged over … for the first, 0.000117 average fractional NGS count over selection days 2 and 3 (reads of this peptide / all reads for the bait, averaged over … for the second.

First: chain 1 H14K
Second: chain 1 H14A
The screen value of the first is lower: 0.00043 average fractional NGS count over selection days 2 and 3 (reads of this peptide / all reads for the bait, averaged over … for the first, 0.00145 average fractional NGS count over selection days 2 and 3 (reads of this peptide / all reads for the bait, averaged over … for the second.

Going from chain 1 A4R to chain 1 A4H, the screen value rises from 0.000178 average fractional NGS count over selection days 2 and 3 (reads of this peptide / all reads for the bait, averaged over … to 0.000353 average fractional NGS count over selection days 2 and 3 (reads of this peptide / all reads for the bait, averaged over ….

Compared with chain 1 A4L, chain 1 A4M is lower in screen value: 0.00111 average fractional NGS count over selection days 2 and 3 (reads of this peptide / all reads for the bait, averaged over … for the first, 0.00014 average fractional NGS count over selection days 2 and 3 (reads of this peptide / all reads for the bait, averaged over … for the second.

Compared with chain 1 A4G, chain 1 A4Y is higher in screen value: 0.00149 average fractional NGS count over selection days 2 and 3 (reads of this peptide / all reads for the bait, averaged over … for the first, 0.00172 average fractional NGS count over selection days 2 and 3 (reads of this peptide / all reads for the bait, averaged over … for the second.

First: chain 1 A4N
Second: chain 1 A4Q
The screen value of the first is lower: 0.000378 average fractional NGS count over selection days 2 and 3 (reads of this peptide / all reads for the bait, averaged over … for the first, 0.00114 average fractional NGS count over selection days 2 and 3 (reads of this peptide / all reads for the bait, averaged over … for the second.

First: chain 1 A4P
Second: chain 1 G11T
The screen value of the first is higher: 0.00156 average fractional NGS count over selection days 2 and 3 (reads of this peptide / all reads for the bait, averaged over … for the first, 0.000177 average fractional NGS count over selection days 2 and 3 (reads of this peptide / all reads for the bait, averaged over … for the second.

Compared with chain 1 Q2T, chain 1 Q2D is higher in screen value: 0.00025 average fractional NGS count over selection days 2 and 3 (reads of this peptide / all reads for the bait, averaged over … for the first, 0.000375 average fractional NGS count over selection days 2 and 3 (reads of this peptide / all reads for the bait, averaged over … for the second.

First: chain 1 Q2K
Second: chain 1 Q2S
The screen value of the first is lower: 0.000265 average fractional NGS count over selection days 2 and 3 (reads of this peptide / all reads for the bait, averaged over … for the first, 0.00082 average fractional NGS count over selection days 2 and 3 (reads of this peptide / all reads for the bait, averaged over … for the second.

Compared with chain 1 Q2H, chain 1 Q2M is lower in screen value: 0.00198 average fractional NGS count over selection days 2 and 3 (reads of this peptide / all reads for the bait, averaged over … for the first, 0.000757 average fractional NGS count over selection days 2 and 3 (reads of this peptide / all reads for the bait, averaged over … for the second.

Compared with chain 1 Q2G, chain 1 Q2N is higher in screen value: 0.00015 average fractional NGS count over selection days 2 and 3 (reads of this peptide / all reads for the bait, averaged over … for the first, 0.000675 average fractional NGS count over selection days 2 and 3 (reads of this peptide / all reads for the bait, averaged over … for the second.

First: chain 1 Q2E
Second: chain 1 Q2A
The screen value of the first is higher: 0.00238 average fractional NGS count over selection days 2 and 3 (reads of this peptide / all reads for the bait, averaged over … for the first, 0.000379 average fractional NGS count over selection days 2 and 3 (reads of this peptide / all reads for the bait, averaged over … for the second.

Going from chain 1 Q2Y to chain 1 P9T, the screen value rises from 0.000109 average fractional NGS count over selection days 2 and 3 (reads of this peptide / all reads for the bait, averaged over … to 0.000277 average fractional NGS count over selection days 2 and 3 (reads of this peptide / all reads for the bait, averaged over ….

Compared with chain 1 P9A, chain 1 Q10N is higher in screen value: 0.000163 average fractional NGS count over selection days 2 and 3 (reads of this peptide / all reads for the bait, averaged over … for the first, 0.000239 average fractional NGS count over selection days 2 and 3 (reads of this peptide / all reads for the bait, averaged over … for the second.

Compared with chain 1 Q10H, chain 1 Q10W is higher in screen value: 0.000277 average fractional NGS count over selection days 2 and 3 (reads of this peptide / all reads for the bait, averaged over … for the first, 0.000745 average fractional NGS count over selection days 2 and 3 (reads of this peptide / all reads for the bait, averaged over … for the second.

Compared with chain 1 Q10S, chain 1 Q10D is higher in screen value: 0.000273 average fractional NGS count over selection days 2 and 3 (reads of this peptide / all reads for the bait, averaged over … for the first, 0.00111 average fractional NGS count over selection days 2 and 3 (reads of this peptide / all reads for the bait, averaged over … for the second.

First: chain 1 Q10Y
Second: chain 1 Q7W
The screen value of the first is higher: 0.00045 average fractional NGS count over selection days 2 and 3 (reads of this peptide / all reads for the bait, averaged over … for the first, 0.000185 average fractional NGS count over selection days 2 and 3 (reads of this peptide / all reads for the bait, averaged over … for the second.

First: chain 1 Q7H
Second: chain 1 Q7M
The screen value of the first is lower: 0.00159 average fractional NGS count over selection days 2 and 3 (reads of this peptide / all reads for the bait, averaged over … for the first, 0.00184 average fractional NGS count over selection days 2 and 3 (reads of this peptide / all reads for the bait, averaged over … for the second.

For chain 1 Q7Y, the screen value was 0.000137 average fractional NGS count over selection days 2 and 3 (reads of this peptide / all reads for the bait, averaged over ….
